Two molecules from patent publication US20260023068A1, “USE OF A FBXO42 SPECIFIC INHIBITOR IN TREATING NOTCH SIGNALING-DEPENDENT DISEASE” (WESTLAKE UNIVERSITY, priority 2022, published 2026) can be followed below.

In assay [1] the target is cSFB-tagged RBPJ (recombination signal-binding protein of immunoglobulin kappa J region with C-terminal SFB tag), Q06330. Kind of assay: biomolecular interaction kinetics with purified proteins; RBPJ at 225 nM loaded on SA probe, FBXO42 at 19.5-625 nM. The conditions noted are these: remark: other sources report otherwise.
Chain of cSFB-tagged RBPJ (recombination signal-binding protein of immunoglobulin kappa J region with C-terminal SFB tag), Q06330 (Q06330 whole entry): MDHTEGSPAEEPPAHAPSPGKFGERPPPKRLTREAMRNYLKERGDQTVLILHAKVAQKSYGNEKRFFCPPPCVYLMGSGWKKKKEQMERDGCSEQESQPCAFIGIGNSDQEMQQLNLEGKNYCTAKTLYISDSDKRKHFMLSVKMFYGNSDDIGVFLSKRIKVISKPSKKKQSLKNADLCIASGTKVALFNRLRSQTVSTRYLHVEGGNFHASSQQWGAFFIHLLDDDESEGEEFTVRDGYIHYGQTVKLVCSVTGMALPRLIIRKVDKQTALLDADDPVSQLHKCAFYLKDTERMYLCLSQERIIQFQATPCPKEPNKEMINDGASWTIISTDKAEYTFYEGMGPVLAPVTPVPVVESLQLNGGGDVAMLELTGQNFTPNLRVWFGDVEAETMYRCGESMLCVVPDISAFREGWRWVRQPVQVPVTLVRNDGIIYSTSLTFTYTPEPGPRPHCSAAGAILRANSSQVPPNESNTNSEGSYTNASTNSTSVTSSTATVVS
For a further assay, the target named is T1, CUL1 (UniProt Q13616 1-776).
T1 construct: also called Cullin-1
T1 sequence (Q13616 whole entry): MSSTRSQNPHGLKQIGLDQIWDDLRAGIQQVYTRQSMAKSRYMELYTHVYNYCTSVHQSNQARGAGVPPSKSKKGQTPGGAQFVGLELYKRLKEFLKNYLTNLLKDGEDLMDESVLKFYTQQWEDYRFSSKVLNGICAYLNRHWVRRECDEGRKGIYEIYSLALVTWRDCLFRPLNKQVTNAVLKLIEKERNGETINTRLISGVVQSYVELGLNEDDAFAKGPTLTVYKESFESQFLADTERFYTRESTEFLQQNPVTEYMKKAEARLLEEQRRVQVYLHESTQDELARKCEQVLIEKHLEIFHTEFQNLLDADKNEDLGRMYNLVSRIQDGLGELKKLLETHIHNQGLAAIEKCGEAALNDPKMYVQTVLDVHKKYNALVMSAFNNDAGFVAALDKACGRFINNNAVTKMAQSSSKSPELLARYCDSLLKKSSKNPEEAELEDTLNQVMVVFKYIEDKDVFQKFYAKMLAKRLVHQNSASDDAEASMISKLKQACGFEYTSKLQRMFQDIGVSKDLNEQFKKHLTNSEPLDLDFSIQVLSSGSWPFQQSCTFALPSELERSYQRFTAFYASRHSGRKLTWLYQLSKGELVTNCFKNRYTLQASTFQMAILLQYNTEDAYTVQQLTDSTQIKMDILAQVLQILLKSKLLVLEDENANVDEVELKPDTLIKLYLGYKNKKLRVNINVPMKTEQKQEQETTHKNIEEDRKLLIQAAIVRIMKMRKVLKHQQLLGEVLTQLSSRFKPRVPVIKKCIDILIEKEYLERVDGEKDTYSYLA
Kind of assay: TAP-MS with FBXO42 as the bait in HEK293T cells. The procedure:
TAP purification was performed as described previously (W Bian et al., Low-density-lipoprotein-receptor-related protein 1 mediates Notch pathway activation. Dev Cell 56, 2902-2919 e2908 (2021)). Briefly, 1×10⁸ HEK293T cells stably expressing cSFB-RBPJ or FBXO42 were lysed in 5 ml of NETN buffer (with protease inhibitors) at 4° C. for 30 min followed by TurboNuclease treatment. The lysate was then incubated with streptavidin-conjugated beads (Thermo Fisher Scientific, Waltham, MA) for 2 h at 4° C. After washing with NETN buffer, the bound proteins were eluted with NETN buffer containing 2 mg/mL biotin (Sigma, St. Louis, MO) for 2 h at 4° C. The eluates were then incubated with S-protein beads (EMD Millipore, Burlington, […]) for 4 h. The beads were washed three times with NETN buffer and subjected to SDS-PAGE, followed by Coomassie blue staining. The whole band was excised and subjected to in-gel trypsin digestion and MS analysis.
FBXO42 is a substrate-recognition component of the SKP1-CUL1-F-box protein (SCF)-type E3 ligase complex, which has been previously reported to promote p53 ubiquitination and degradation (L. Sun et al., JFK, a Kelch domain-containing F-box protein, links the SCF complex to p53 regulation. Proc Natl Acad Sci USA 106,10195-10200 (2009)). […]

The target in another assay is T2, RBPJ (Homo sapiens, UniProt Q06330).
T2 construct: SFB (cSFB) (C); made in house; host or cells: 293F cells
T2 sequence (Q06330 whole entry): as the sequence (Q06330 whole entry) above
Kind of assay: Biomolecular interaction analysis with purified recombinant RBPJ and FBXO42 proteins. Format: binding. The conditions noted are these: in vitro, RBPJ 225 nM on SA probe, FBXO42 19.5 nM-625 nM (FIG. 3I). An excerpt: (A) Interaction network of FBXO42. Top 50 interactors identified in TAP-MS was shown. (B) KEGG enrichment analysis of preys acquired in FBXO42 tandem-affinity purification (TAP)-MS. The x-axis represents gene ratio=count/set size. The size of the dots represents the number of genes associated with the GO term and the color of the dots represent the adjusted P-values. (C) Circos plot showing overlapping RBPJ and FBXO42 preys. Purple lines link the genes that shared by RBPJ and FBXO42. Blue lines link different genes enriched in the same ontology term. (D and E) HEK293T cell lysates were incubated with IgG control and antibodies against FBXO42 (D) or RBPJ (E). Five percent lysate was used as the input control. Blots with antibodies recognizing RBPJ, FBXO42 and Actin are shown. (F and G) HEK293T cells were cotransfected with Myc-tagged FBXO42 and cSFB-tagged RBPJ, as indicated. The cell lysates were incubated with S beads (F) or an anti-MYC antibody (G). Five percent lysate was used as the input control. Blots with antibodies recognizing the FLAG and MYC epitope tags and Actin are shown. (H) Coomassie blue staining of cSFB-tagged RBPJ and FLAG-FBXO42 proteins purified from 293F cells. (I) Biomolecular interaction kinetics curve showing the binding affinity between purified RBPJ and FBXO42 proteins. The RBPJ was used at 225 nM for binding to SA probe. […]

B1: cSFB-FBXO42 (FBXO42 with C-terminal SFB tag) (other, UniProt Q6P3S6 1-717, looked up)
chain: MASSSDSEDDSFMAVDQEETVLEGTMDQDEEPHPVLEAEETRHNRSMSELPEEVLEYILSFLSPYQEHKTAALVCKQWYRLIKGVAHQCYHGFMKAVQEGNIQWESRTYPYPGTPITQRFSHSACYYDANQSMYVFGGCTQSSCNAAFNDLWRLDLNSKEWIRPLASGSYPSPKAGATLVVYKDLLVLFGGWTRPSPYPLHQPERFFDEIHTYSPSKNWWNCIVTTHGPPPMAGHSSCVIDDKMIVFGGSLGSRQMSNDVWVLDLEQWAWSKPNISGPSPHPRGGQSQIVIDDATILILGGCGGPNALFKDAWLLHMHSGPWAWQPLKVENEEHGAPELWCHPACRVGQCVVVFSQAPSGRAPLSPSLNSRPSPISATPPALVPETREYRSQSPVRSMDEAPCVNGRWGTLRPRAQRQTPSGSREGSLSPARGDGSPILNGGSLSPGTAAVGGSSLDSPVQAISPSTPSAPEGYDLKIGLSLAPRRGSLPDQKDLRLGSIDLNWDLKPASSSNPMDGMDNRTVGGSMRHPPEQTNGVHTPPHVASALAGAVSPGALRRSLEAIKAMSSKGPSASAALSPPLGSSPGSPGSQSLSSGETVPIPRPGPAQGDGHSLPPIARRLGHHPPQSLNVGKPLYQSMNCKPMQMYVLDIKDTKEKGRVKWKVFNSSSVVGPPETSLHTVVQGRGELIIFGGLMDKKQNVKYYPKTNALYFVRAKR
notes: Stably expressed in HEK293T cells as bait for TAP-MS; also called FBXO42 bait; not shown: C-terminal SFB tag
One may read the Kd as the free concentration of one partner at which half of the binding sites on the other are occupied at equilibrium, for simple one-to-one binding. As for B1, the Kd in assay [1] is 47 nM. Also, the binding result with CUL1 is given as “binds”.

B2: FBXO42: purified recombinant F-box protein 42, substrate-recognition component of the SCF-type E3 ligase complex (protein)
chain: MASSSDSEDDSFMAVDQEETVLEGTMDQDEEPHPVLEAEETRHNRSMSELPEEVLEYILSFLSPYQEHKTAALVCKQWYRLIKGVAHQCYHGFMKAVQEGNIQWESRTYPYPGTPITQRFSHSACYYDANQSMYVFGGCTQSSCNAAFNDLWRLDLNSKEWIRPLASGSYPSPKAGATLVVYKDLLVLFGGWTRPSPYPLHQPERFFDEIHTYSPSKNWWNCIVTTHGPPPMAGHSSCVIDDKMIVFGGSLGSRQMSNDVWVLDLEQWAWSKPNISGPSPHPRGGQSQIVIDDATILILGGCGGPNALFKDAWLLHMHSGPWAWQPLKVENEEHGAPELWCHPACRVGQCVVVFSQAPSGRAPLSPSLNSRPSPISATPPALVPETREYRSQSPVRSMDEAPCVNGRWGTLRPRAQRQTPSGSREGSLSPARGDGSPILNGGSLSPGTAAVGGSSLDSPVQAISPSTPSAPEGYDLKIGLSLAPRRGSLPDQKDLRLGSIDLNWDLKPASSSNPMDGMDNRTVGGSMRHPPEQTNGVHTPPHVASALAGAVSPGALRRSLEAIKAMSSKGPSASAALSPPLGSSPGSPGSQSLSSGETVPIPRPGPAQGDGHSLPPIARRLGHHPPQSLNVGKPLYQSMNCKPMQMYVLDIKDTKEKGRVKWKVFNSSSVVGPPETSLHTVVQGRGELIIFGGLMDKKQNVKYYPKTNALYFVRAKR
modifications: left off: small tags and cut ends
notes: purified recombinant F-box protein 42, substrate-recognition component of the SCF-type E3 ligase complex
On to B2, for which the Kd with RBPJ was determined as 47 nM.
